Each sequence was assayed against FGFR3 (UniProt P22607) (assay: phosphorylation enrichment, bacterial display (enrichment ratio); higher = better substrate or ligand; peptides without Tyr show the background).
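Further: 11-residue human phosphosite peptides and single-mutation variants displayed on the E. coli surface, counted by deep sequencing, each peptide's frequency after selection divided by its frequency in the unselected input library; frequency after pTyr selection over input frequency; kinase dosed for 20-30% of maximal phosphorylation in three min.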

FGFR3, sequence (P22607 whole entry, looked up): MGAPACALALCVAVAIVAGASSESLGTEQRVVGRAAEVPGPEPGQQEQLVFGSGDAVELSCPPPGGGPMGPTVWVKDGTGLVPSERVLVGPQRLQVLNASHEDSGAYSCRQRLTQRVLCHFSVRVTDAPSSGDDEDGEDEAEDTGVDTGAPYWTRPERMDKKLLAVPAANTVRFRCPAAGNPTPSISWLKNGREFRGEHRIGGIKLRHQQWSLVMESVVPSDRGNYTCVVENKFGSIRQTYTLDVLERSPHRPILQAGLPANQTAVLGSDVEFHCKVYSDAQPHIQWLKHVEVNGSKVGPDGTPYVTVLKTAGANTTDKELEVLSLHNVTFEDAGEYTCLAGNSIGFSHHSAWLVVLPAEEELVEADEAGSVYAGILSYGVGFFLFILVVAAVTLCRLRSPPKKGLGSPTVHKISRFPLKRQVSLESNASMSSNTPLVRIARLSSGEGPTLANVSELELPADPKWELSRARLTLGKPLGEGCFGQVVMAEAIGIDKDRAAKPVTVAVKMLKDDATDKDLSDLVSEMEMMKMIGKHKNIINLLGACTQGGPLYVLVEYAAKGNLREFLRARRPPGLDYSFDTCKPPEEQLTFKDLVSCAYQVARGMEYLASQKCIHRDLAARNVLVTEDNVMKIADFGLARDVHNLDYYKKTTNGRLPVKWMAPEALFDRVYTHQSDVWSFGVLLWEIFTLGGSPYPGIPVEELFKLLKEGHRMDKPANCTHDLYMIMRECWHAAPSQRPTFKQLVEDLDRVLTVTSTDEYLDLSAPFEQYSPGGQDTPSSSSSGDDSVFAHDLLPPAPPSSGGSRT

Question: How did the phosphorylation enrichment turn out when VSLEAYCKHKF [RXRA_Y403_A398V_YF] was run?
Answer: The phosphorylation enrichment was 0.568.

Question: How did the phosphorylation enrichment turn out when FEGAIYRKDVG [GART_Y417] was run?
Answer: Its phosphorylation enrichment is 0.539.

Question: With SEQNNYSRVAN [CWC22_Y797_R794Q] as the sequence, how does the phosphorylation enrichment read?
Answer: Its phosphorylation enrichment is 0.437.

Question: ETWHNYHKFDS [MATR3_Y243_S240W] was tested. Which phosphorylation enrichment did it give?
Answer: The phosphorylation enrichment was 0.732.

Question: How did the phosphorylation enrichment turn out when RRIHRYRGHLW [VHL_Y112_S111R] was run?
Answer: The phosphorylation enrichment was 0.452.

Question: For SRIWVYNHFRC [BRCA2_Y2621_W2626C_YF], which phosphorylation enrichment is on record?
Answer: Its phosphorylation enrichment is 0.937.

Question: For TDLAYYLVRKG [ASL_Y376], which phosphorylation enrichment is on record?
Answer: Its phosphorylation enrichment is 2.42.

Question: For LTDLRYKVSGL, which phosphorylation enrichment is on record?
Answer: The phosphorylation enrichment was 0.437.

Question: Which phosphorylation enrichment does the source give for PLDGEYFTHQI [TP53_Y327_L330H] here?
Answer: Its phosphorylation enrichment is 1.55.

Question: KDKLPYLFDDP [GPX2_Y125_P126L_YF] was tested. Which phosphorylation enrichment did it give?
Answer: Its phosphorylation enrichment is 0.544.

Question: With HKLSFCEFDFE [BTK_Y40_Y40C_YF] as the sequence, how does the phosphorylation enrichment read?
Answer: The phosphorylation enrichment was 1.34.

Question: NNKKDYYDMYE [SLC26A3_Y526_K521N] was tested. Which phosphorylation enrichment did it give?
Answer: Its phosphorylation enrichment is 6.01.

Question: For LLTALYFISWG [KCNH2_Y780_R784W], which phosphorylation enrichment is on record?
Answer: The phosphorylation enrichment was 1.23.

Question: With YQKDVYNIPPS [NEDD9_Y177_D178N] as the sequence, how does the phosphorylation enrichment read?
Answer: The phosphorylation enrichment was 0.529.

Question: Which phosphorylation enrichment does the source give for AAGGRYFGLVG [HARS1_Y363_D364Y_YF] here?
Answer: The phosphorylation enrichment was 0.471.

Question: LRSELYFLIAR [PHIP_Y16] was tested. Which phosphorylation enrichment did it give?
Answer: Its phosphorylation enrichment is 3.17.

The sequences below were run on Fer (mouse) in the same assay as above.

Question: Which phosphorylation enrichment does the source give for VSLEAYCKHKF [RXRA_Y403_A398V_YF] here?
Answer: Its phosphorylation enrichment is 0.411.

Question: Which phosphorylation enrichment does the source give for FEGAIYRKDVG [GART_Y417] here?
Answer: The phosphorylation enrichment was 0.662.

Question: SEQNNYSRVAN [CWC22_Y797_R794Q] was tested. Which phosphorylation enrichment did it give?
Answer: The phosphorylation enrichment was 0.497.

Question: For ETWHNYHKFDS [MATR3_Y243_S240W], which phosphorylation enrichment is on record?
Answer: The phosphorylation enrichment was 0.395.

Question: For RRIHRYRGHLW [VHL_Y112_S111R], which phosphorylation enrichment is on record?
Answer: The phosphorylation enrichment was 0.376.

Question: With SRIWVYNHFRC [BRCA2_Y2621_W2626C_YF] as the sequence, how does the phosphorylation enrichment read?
Answer: Its phosphorylation enrichment is 0.653.

Question: For TDLAYYLVRKG [ASL_Y376], which phosphorylation enrichment is on record?
Answer: The phosphorylation enrichment was 0.48.

Question: With LTDLRYKVSGL as the sequence, how does the phosphorylation enrichment read?
Answer: Its phosphorylation enrichment is 0.404.

Question: For PLDGEYFTHQI [TP53_Y327_L330H], which phosphorylation enrichment is on record?
Answer: The phosphorylation enrichment was 1.08.

Question: For KDKLPYLFDDP [GPX2_Y125_P126L_YF], which phosphorylation enrichment is on record?
Answer: Its phosphorylation enrichment is 0.423.

Question: For HKLSFCEFDFE [BTK_Y40_Y40C_YF], which phosphorylation enrichment is on record?
Answer: Its phosphorylation enrichment is 0.965.

Question: For NNKKDYYDMYE [SLC26A3_Y526_K521N], which phosphorylation enrichment is on record?
Answer: Its phosphorylation enrichment is 0.544.

Question: LLTALYFISWG [KCNH2_Y780_R784W] was tested. Which phosphorylation enrichment did it give?
Answer: The phosphorylation enrichment was 0.782.

Question: With YQKDVYNIPPS [NEDD9_Y177_D178N] as the sequence, how does the phosphorylation enrichment read?
Answer: Its phosphorylation enrichment is 0.472.

Question: For AAGGRYFGLVG [HARS1_Y363_D364Y_YF], which phosphorylation enrichment is on record?
Answer: Its phosphorylation enrichment is 0.389.

Question: LRSELYFLIAR [PHIP_Y16] was tested. Which phosphorylation enrichment did it give?
Answer: The phosphorylation enrichment was 0.916.

Each sequence was assayed against Fes (UniProt P07332) in the same assay as above.
Fes, sequence (P07332 whole entry, looked up): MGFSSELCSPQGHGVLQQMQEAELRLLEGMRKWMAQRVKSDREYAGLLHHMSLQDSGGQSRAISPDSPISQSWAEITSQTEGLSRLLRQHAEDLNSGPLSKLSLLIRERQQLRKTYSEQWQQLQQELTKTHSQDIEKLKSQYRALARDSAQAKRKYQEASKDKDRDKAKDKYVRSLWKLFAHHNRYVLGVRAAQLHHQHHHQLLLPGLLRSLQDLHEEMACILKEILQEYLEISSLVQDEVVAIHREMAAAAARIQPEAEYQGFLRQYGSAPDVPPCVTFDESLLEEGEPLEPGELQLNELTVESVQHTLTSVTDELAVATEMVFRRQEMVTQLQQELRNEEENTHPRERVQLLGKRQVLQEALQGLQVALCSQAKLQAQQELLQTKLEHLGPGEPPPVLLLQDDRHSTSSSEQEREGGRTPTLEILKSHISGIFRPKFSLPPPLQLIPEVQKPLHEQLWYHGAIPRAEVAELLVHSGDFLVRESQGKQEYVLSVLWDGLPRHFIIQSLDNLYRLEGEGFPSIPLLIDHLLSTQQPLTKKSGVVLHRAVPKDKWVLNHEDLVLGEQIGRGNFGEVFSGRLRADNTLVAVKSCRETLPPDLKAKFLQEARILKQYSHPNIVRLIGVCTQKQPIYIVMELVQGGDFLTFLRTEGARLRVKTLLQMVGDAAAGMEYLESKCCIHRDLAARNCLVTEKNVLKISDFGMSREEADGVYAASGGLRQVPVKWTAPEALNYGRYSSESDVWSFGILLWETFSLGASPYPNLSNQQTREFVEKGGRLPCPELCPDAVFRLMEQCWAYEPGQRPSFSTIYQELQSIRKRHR

Question: With VSLEAYCKHKF [RXRA_Y403_A398V_YF] as the sequence, how does the phosphorylation enrichment read?
Answer: The phosphorylation enrichment was 1.07.

Question: FEGAIYRKDVG [GART_Y417] was tested. Which phosphorylation enrichment did it give?
Answer: Its phosphorylation enrichment is 0.707.

Question: For SEQNNYSRVAN [CWC22_Y797_R794Q], which phosphorylation enrichment is on record?
Answer: Its phosphorylation enrichment is 0.534.

Question: How did the phosphorylation enrichment turn out when ETWHNYHKFDS [MATR3_Y243_S240W] was run?
Answer: Its phosphorylation enrichment is 0.755.

Question: With RRIHRYRGHLW [VHL_Y112_S111R] as the sequence, how does the phosphorylation enrichment read?
Answer: The phosphorylation enrichment was 0.524.

Question: With SRIWVYNHFRC [BRCA2_Y2621_W2626C_YF] as the sequence, how does the phosphorylation enrichment read?
Answer: The phosphorylation enrichment was 1.43.

Question: With TDLAYYLVRKG [ASL_Y376] as the sequence, how does the phosphorylation enrichment read?
Answer: The phosphorylation enrichment was 0.962.

Question: For LTDLRYKVSGL, which phosphorylation enrichment is on record?
Answer: Its phosphorylation enrichment is 0.725.

Question: How did the phosphorylation enrichment turn out when PLDGEYFTHQI [TP53_Y327_L330H] was run?
Answer: The phosphorylation enrichment was 1.43.

Question: KDKLPYLFDDP [GPX2_Y125_P126L_YF] was tested. Which phosphorylation enrichment did it give?
Answer: The phosphorylation enrichment was 0.969.

Question: With HKLSFCEFDFE [BTK_Y40_Y40C_YF] as the sequence, how does the phosphorylation enrichment read?
Answer: The phosphorylation enrichment was 3.4.

Question: Which phosphorylation enrichment does the source give for NNKKDYYDMYE [SLC26A3_Y526_K521N] here?
Answer: The phosphorylation enrichment was 1.04.

Question: Which phosphorylation enrichment does the source give for LLTALYFISWG [KCNH2_Y780_R784W] here?
Answer: The phosphorylation enrichment was 1.58.

Question: Which phosphorylation enrichment does the source give for YQKDVYNIPPS [NEDD9_Y177_D178N] here?
Answer: Its phosphorylation enrichment is 0.702.

Question: For AAGGRYFGLVG [HARS1_Y363_D364Y_YF], which phosphorylation enrichment is on record?
Answer: Its phosphorylation enrichment is 0.764.

Question: Which phosphorylation enrichment does the source give for LRSELYFLIAR [PHIP_Y16] here?
Answer: The phosphorylation enrichment was 1.71.

These sequences were tested against Fyn (UniProt P06241) in the same assay as above.
Fyn, sequence (P06241 whole entry, looked up): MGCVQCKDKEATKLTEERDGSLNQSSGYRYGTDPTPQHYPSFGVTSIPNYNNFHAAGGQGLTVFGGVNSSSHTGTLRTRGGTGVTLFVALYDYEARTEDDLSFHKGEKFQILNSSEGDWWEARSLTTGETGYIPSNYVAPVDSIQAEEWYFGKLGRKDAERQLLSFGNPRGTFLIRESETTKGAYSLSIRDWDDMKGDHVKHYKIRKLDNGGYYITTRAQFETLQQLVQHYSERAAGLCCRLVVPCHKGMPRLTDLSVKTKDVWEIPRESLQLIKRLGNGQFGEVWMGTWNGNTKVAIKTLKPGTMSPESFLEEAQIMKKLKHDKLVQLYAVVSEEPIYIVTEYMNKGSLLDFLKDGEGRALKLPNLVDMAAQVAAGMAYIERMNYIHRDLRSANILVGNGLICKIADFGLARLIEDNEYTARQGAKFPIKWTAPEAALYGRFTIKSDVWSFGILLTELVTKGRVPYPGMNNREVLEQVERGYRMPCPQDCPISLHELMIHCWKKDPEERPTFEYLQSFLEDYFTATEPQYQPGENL

Question: For VSLEAYCKHKF [RXRA_Y403_A398V_YF], which phosphorylation enrichment is on record?
Answer: Its phosphorylation enrichment is 0.399.

Question: How did the phosphorylation enrichment turn out when FEGAIYRKDVG [GART_Y417] was run?
Answer: The phosphorylation enrichment was 0.405.

Question: SEQNNYSRVAN [CWC22_Y797_R794Q] was tested. Which phosphorylation enrichment did it give?
Answer: Its phosphorylation enrichment is 0.458.

Question: ETWHNYHKFDS [MATR3_Y243_S240W] was tested. Which phosphorylation enrichment did it give?
Answer: The phosphorylation enrichment was 0.468.

Question: Which phosphorylation enrichment does the source give for RRIHRYRGHLW [VHL_Y112_S111R] here?
Answer: The phosphorylation enrichment was 0.468.

Question: For SRIWVYNHFRC [BRCA2_Y2621_W2626C_YF], which phosphorylation enrichment is on record?
Answer: The phosphorylation enrichment was 0.547.

Question: Which phosphorylation enrichment does the source give for TDLAYYLVRKG [ASL_Y376] here?
Answer: The phosphorylation enrichment was 0.539.

Question: LTDLRYKVSGL was tested. Which phosphorylation enrichment did it give?
Answer: Its phosphorylation enrichment is 0.352.

Question: Which phosphorylation enrichment does the source give for PLDGEYFTHQI [TP53_Y327_L330H] here?
Answer: Its phosphorylation enrichment is 1.99.

Question: Which phosphorylation enrichment does the source give for KDKLPYLFDDP [GPX2_Y125_P126L_YF] here?
Answer: Its phosphorylation enrichment is 0.479.

Question: With HKLSFCEFDFE [BTK_Y40_Y40C_YF] as the sequence, how does the phosphorylation enrichment read?
Answer: Its phosphorylation enrichment is 0.764.

Question: How did the phosphorylation enrichment turn out when NNKKDYYDMYE [SLC26A3_Y526_K521N] was run?
Answer: The phosphorylation enrichment was 0.792.

Question: LLTALYFISWG [KCNH2_Y780_R784W] was tested. Which phosphorylation enrichment did it give?
Answer: The phosphorylation enrichment was 1.59.

Question: For YQKDVYNIPPS [NEDD9_Y177_D178N], which phosphorylation enrichment is on record?
Answer: The phosphorylation enrichment was 4.4.

Question: Which phosphorylation enrichment does the source give for AAGGRYFGLVG [HARS1_Y363_D364Y_YF] here?
Answer: Its phosphorylation enrichment is 0.396.

Question: LRSELYFLIAR [PHIP_Y16] was tested. Which phosphorylation enrichment did it give?
Answer: The phosphorylation enrichment was 0.769.
